Source: paper PMC7870652, “Single-molecule force spectroscopy reveals the dynamic strength of the hair-cell tip-link connection” (Nature Communications, 2021)

What was measured:
[1] = molecular target: T1, single-bond CDH23 fusion protein (EC1-5/EC3-5 Fc heterodimer with one EC1-2 binding domain) (mouse, SNAPtag coupled to a benzylguanine DNA tether); experiment: single-molecule force spectroscopy (dual-beam optical tweezers); each protein held on a streptavidin-coated silica bead through a DNA tether on its SNAPtag (R113G proteins and fast loading rates: biotinylated directly with BG-Biotin); room temperature, TBS-TB + Ca^2+ buffer (20 mM Tris, 125 mM NaCl, pH 7.4, 0.02% Tween-20, blocking reagent), 2 mM Ca^2+; loading rates 0.39-377.8 pN s^−1; constants from fits of the …; conditions: both partners purified
T1 construct: signal peptide in the construct (native; its cleavage on secretion was confirmed); cadherin-23, mouse, EC1-5; signal peptide in the construct (native, preserved by the deletion); cadherin-23, mouse, the EC1-5 construct (base pairs 408-2066 of NM_023370) from which amino acids 25-228 (EC1-2) were deleted, leaving EC3-5; 408-2066 is 1659 bp (553 codons), probably residues 1-553 of the precursor; …

[2] = molecular target: T2, dimeric full-ectodomain CDH23 fusion protein (mouse, UniProt Q99PF4 24-3064, SNAPtag coupled to a benzylguanine DNA tether or BG-Biotin (force spectroscopy), or to a benzylguanine-PEG15-biotin linker (biolayer interferometry)); experiment: BLI; CDH23 biotinylated on its SNAPtag and immobilised on streptavidin-coated PEG-biotin aminopropylsilane sensors; 10–300 nM PCDH15 in solution; TBS-Tween + Ca^2+ buffer, 2 mM Ca^2+; traces of a drift sensor and of PCDH15 lacking EC1-2 subtracted; dissociation fitted with a single exponential; on-rates measured at 300 nM PCDH15 (effective on-rate); Octet Red384; conditions: both partners purified
T2 construct: cadherin-23, mouse, the entire extracellular domain up to the last hydrophilic amino acid before the transmembrane domain (27 EC domains); The two halves carry opposing Fc heterodimerisation domains and the same cadherin ectodomain; also called full-length dimer; CDH23 dimer; source: HEK Expi293 cells, co-transfected, secreted; purified (Ni-NTA or TALON, size-exclusion on Superose 6 Increase)
T2 sequence (Q99PF4 24-3064): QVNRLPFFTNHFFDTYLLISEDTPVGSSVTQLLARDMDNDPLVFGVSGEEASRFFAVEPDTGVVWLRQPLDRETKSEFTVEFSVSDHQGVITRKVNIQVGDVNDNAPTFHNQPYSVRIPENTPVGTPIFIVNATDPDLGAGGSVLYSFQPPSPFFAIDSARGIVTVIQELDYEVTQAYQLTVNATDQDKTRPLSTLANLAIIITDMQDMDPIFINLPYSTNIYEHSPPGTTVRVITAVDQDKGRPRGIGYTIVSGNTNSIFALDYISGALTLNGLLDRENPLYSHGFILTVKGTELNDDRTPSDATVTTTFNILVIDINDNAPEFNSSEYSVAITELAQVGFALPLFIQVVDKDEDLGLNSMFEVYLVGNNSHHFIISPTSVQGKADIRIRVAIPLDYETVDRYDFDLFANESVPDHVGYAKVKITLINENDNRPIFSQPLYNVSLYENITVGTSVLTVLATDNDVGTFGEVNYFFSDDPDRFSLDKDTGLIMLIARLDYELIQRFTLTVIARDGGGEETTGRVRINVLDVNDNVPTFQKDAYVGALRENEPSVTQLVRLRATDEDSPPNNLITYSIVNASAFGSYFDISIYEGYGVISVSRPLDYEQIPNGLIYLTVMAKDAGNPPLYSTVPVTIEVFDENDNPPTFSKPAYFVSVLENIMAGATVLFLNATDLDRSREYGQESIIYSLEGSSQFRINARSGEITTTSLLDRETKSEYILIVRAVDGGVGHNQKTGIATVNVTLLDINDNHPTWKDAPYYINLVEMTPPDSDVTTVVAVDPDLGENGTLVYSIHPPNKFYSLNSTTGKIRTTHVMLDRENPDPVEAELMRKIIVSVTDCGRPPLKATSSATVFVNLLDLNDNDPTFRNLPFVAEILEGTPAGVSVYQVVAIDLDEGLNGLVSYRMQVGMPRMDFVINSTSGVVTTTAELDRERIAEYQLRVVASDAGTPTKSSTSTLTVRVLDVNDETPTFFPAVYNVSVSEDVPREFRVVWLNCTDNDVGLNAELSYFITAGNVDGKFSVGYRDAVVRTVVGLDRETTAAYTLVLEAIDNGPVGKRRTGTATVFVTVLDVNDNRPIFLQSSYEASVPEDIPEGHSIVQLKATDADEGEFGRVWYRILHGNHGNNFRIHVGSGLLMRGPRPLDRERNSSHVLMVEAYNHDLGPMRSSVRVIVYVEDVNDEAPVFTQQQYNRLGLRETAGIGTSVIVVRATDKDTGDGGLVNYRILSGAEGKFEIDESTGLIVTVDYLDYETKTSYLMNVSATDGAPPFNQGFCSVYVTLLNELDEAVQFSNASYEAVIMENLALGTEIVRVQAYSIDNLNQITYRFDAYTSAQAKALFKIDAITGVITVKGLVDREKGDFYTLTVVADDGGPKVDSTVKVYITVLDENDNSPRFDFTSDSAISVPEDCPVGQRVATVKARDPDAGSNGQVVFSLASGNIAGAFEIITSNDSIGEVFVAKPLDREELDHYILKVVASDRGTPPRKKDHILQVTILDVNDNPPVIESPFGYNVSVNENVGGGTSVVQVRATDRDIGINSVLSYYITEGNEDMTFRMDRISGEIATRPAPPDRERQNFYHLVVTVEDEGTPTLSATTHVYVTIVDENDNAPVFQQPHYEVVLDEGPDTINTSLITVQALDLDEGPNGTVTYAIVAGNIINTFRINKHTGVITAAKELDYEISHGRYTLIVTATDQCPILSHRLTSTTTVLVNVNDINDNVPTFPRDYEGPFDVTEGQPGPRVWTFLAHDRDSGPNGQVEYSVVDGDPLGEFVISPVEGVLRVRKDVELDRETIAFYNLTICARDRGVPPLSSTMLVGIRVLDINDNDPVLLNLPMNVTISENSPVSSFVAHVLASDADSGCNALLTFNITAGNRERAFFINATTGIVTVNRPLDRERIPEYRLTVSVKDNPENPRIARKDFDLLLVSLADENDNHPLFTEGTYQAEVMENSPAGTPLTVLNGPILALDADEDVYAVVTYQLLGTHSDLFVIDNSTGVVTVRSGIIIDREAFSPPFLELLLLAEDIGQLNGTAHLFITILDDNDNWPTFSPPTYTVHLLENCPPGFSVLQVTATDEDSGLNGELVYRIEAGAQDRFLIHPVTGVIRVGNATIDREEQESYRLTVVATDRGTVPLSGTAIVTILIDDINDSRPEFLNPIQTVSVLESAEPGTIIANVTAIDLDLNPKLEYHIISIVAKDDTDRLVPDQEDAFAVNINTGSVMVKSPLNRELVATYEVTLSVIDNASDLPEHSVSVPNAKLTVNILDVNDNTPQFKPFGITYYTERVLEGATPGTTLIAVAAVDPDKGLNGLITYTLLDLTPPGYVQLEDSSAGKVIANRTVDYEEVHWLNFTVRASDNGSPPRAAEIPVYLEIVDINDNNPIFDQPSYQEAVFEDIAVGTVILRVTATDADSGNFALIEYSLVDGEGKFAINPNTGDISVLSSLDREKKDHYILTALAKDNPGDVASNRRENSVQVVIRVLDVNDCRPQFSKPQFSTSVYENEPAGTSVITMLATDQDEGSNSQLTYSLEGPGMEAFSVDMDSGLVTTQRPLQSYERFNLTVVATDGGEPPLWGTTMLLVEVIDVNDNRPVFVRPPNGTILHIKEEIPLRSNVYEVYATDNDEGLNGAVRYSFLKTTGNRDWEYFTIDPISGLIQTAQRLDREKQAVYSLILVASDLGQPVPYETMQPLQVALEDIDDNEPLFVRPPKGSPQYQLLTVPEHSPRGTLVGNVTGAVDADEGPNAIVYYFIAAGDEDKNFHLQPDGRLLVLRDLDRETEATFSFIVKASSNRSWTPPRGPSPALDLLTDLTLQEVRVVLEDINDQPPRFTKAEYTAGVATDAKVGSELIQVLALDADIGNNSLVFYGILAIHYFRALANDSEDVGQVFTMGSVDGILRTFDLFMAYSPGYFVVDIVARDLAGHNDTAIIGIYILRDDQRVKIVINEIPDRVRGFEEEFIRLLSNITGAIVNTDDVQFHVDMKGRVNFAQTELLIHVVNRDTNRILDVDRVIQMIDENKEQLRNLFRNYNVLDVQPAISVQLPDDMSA

B1: single-bond PCDH15 fusion protein (EC1-5/EC3-5 Fc heterodimer with one EC1-2 binding domain) (Fc fusion)
chain 1: not shown
chain 2: QGDDLGPMFLPCVLVPNTRDCRPLTYQAAIPELRTPEELNPILVTPPIQAIDQDRNIQPPSDRPGILYSILVGTPEDYPRFFHMHPRTAELTLLEPVNRDFHQKFDLVIKAEQDNGHPLPAFASLHIEILDENNQSPYFTMPSYQGYILESAPVGATISESLNLTTPLRIVALDKDIEDTKDPELHLFLNDYTSVFTVTPTGITRYLTLLQPVDREEQQTYTFLITAFDGVQESEPVVVNIRVMDANDNTPTFPEISYDVYVYTDMSPGDSVIQLTAVDADEGSNGEISYEILVGGKGDFVINKTTGLVSIAPGVELIVGQTYALTVQASDNAPPAERRHSICTVYIEVLPPNNQ
modifications: SNAPtag coupled to a benzylguanine DNA tether
B1 showed a koff [1] of 0.5 ± 0.1 s⁻¹.

B2: dimeric full-ectodomain PCDH15 fusion protein (Fc fusion)
chain: not shown
modifications: SNAPtag coupled to a benzylguanine DNA tether, or to BG-Biotin in some force-spectroscopy conditions
notes: protocadherin-15, mouse, the entire extracellular domain up to the last hydrophilic amino acid before the transmembrane domain (11 EC domains); The two halves carry opposing Fc heterodimerisation domains and the same cadherin ectodomain; also called full-length dimer; full-ectodomain mouse PCDH15; source: HEK Expi293 cells, co-transfected, secreted; purified (Ni-NTA or TALON, size-exclusion on …)
Work on B2 yielded a kon [2] of 350000 M⁻¹ s⁻¹.

B3: dimeric full-ectodomain PCDH15 R113G^+/+ fusion protein (both strands mutated) (Fc fusion)
chain: not shown
modifications: SNAPtag coupled to BG-Biotin (force spectroscopy without the DNA tether)
notes: A human hereditary deafness mutation put into the mouse protein by site-directed mutagenesis; also called homozygous R113G^+/+; source: HEK Expi293 cells, co-transfected, secreted; purified (Ni-NTA or TALON, size-exclusion on Superose 6 Increase)
For B3, the “mean lifetime of the connection at zero force” value [2] was 37 s.
